# Assay results: the DeepSol protein solubility set
# Test: soluble on expression in E. coli; label from the status in PepcDB or PDB records
row,Sequence,soluble on expression in E. coli
1,MNPVHILAKKGEVAERVLVVGDPGRARLLSTLLQNPKLTNENRGFLVYTGKYNGETVSIATHGIGGPSIAIVLEELAMLGANVFIRYGTTGALVPYINLGEYIIVTGASYNQGGLFYQYLRDNACVASTPDFELTNKLVTSFSKRNLKYYVGNVFSSDAFYAEDEEFVKKWSSRGNIAVEMECATLFTLSKVKGWKSATVLVVSDNLAKGGIWITKEELEKSVMDGAKAVLDTLTS,soluble
2,MGSDKIHHHHHHMLKSQEIRQKAPELDSLRLGSGWKSEELNKAQIIIESSFGHSHPGSAHLDTLVDEAFKSIDDNGGRGAKYFVTDICDGETQGHDGMNYSLASRDIMTNLMEIHVQATPFDAGIFIASCDKAVPAHLMAIARLDMPSILVPGGIMNAGPNMLTLEQIGTYNAQYERGEITKEQYEHYKQNACPSCGACSFMGTASTMQVMSEALGIALPGTALIPVTSKELKLAAKNAGKQILKLIELNIKPSEIMTKKAFENAIMVHAAIAGSSNCLLHIPAIAHELGMDIEPELFDEIHKKIPYILNIRPSGFYPGSYFWNAGGVPAIMEEIKEFLHLDVMTVTGKTLGENLEDLKNSGYYEEHDKLITSLGIKKEDVIRTKENPIQSQGAIAILKGNLAPGGAVVKHSAISKKLMQVVLKARVFNCEEDAIKSVLTKNIKPGDAVFVRYEGPKGSGMPEMFYTTEAIASDHELVDSTALITDGRFSGATRGPAIGHVSPEASEGGPIAFVQEGDLIKIDIPARKLDIIGTNGIEKSEKEIENILKERSQNWVKPAPRYTKGILGLYTRCASSPMKGGYME,not soluble
3,MRCIMTEDAQKLAIMEQDVKIVRALSKIKHKIVVMSGKGGVGKSTVTVKLAEEFSRNGYSVCVLDADVHGPDIPKMMRVREPEITLTGNLINPIPTPVGATVMSIEFFLPSEDTPVIWRGPKKTGAIRQLLADVNWEGIDVLIVDNPPGTGDEPLTVLQSIPGIDGVVIVTTPQEVSIHDVEKCINMVNHLKIPVLGIIENMSYLQCPECGKKVFLFGKDGGKYLADKFDLQFLGEIPFETGISGDNESSASSYINNEMVKIFNKLAKYLKDGGANLEHHHHHH,soluble
4,MGIDYNRWWHLKDETLGEELKGYIKMIEEDYLVYSGTTSQLHVSKLSNGSVNSIVNEILEQQGSWSIIYYNQKLKKLFIGRDVFGRQSLVFNFESMIFGCRTKPETSGKWIEIPFGQVTVFSLDSTDPVIYSYLDEYPENVLDGYFSGSDISRIVVNKKHGLLNVSRSTGGEIDSFNTKDLFQKVIDATKILLKNYHESHVAVCLSGGVDSTFVAHVVHSSVPENMQIDLINVAFGNSEKECEQAPDRKRARKALESFRTAYPTRQFRLILVNVDSQTLEVNRKESISDAAQPASSVLDDSLSCVLWFAVRAEGVDSENQQSVRSPATTCLLGSGADELLAGYARHRTRFEKEQIPENVAEECENELRRLGSRNGGRDARVAAQLGKTILSPLLEDTVVTWLNALPVDSKWDLSLPRGVGEKQLLRETVKMLGSPYDAPKQAMQFGSRMAKMSNAGDNSIKGSDKSPHLLKTDVN,not soluble
5,MNSLFLLLFICFNSGCGRKYYEEDIDRAFRSAEAEILPFRPHNVFSSDDSLMLNYSIAALAAIKMAQKTRDPRQKLPHHLCPLKKYNCLYGKYRHSDGRCTNIFFALSGSAYSSFSRRIPANYDDDISTPRLHGYRNGLLPPPAVVEKQIARTPAIYAISLTNTFLEFSEFLYNDLVKFVRLQDGLGCCGTGKSGECLNFGENFLDCYIRSAPSPRAHCSLGRREQMNLATAFLDAGPIYQDLRDTSKGKISSSFTLESTTKSSIHSLLIDEHNWVVDQIQKKFPDMGLELIFEEARKFVIAELQHITFEQFLPILLGDETMKKYDLRASHCDGGSCHEVEANTLNEFGSAVGLFYKFMTSSDKIYNPSLYSTSDFSTSPTSSSSKSPNVAEIISKGRDHGIATYSQWRKECGGGELKTYEDLIDLIDSNILKSLRDLYPDVLDVDLILLGIAENPVYGSLLGPTFGCIMALQFQKTKFGDTYWYTNKLTEDQLEEVKKTSISAMMCRHQKTSIIQKDVFKAADNFQNIPIFCNSSVFAKPDFSKWVETPEKHKNEQFDDILGECILEVFEARNRQRPATLQEGLHNSVALKSYGSMMLAKDEAVNEANVSLILLEATKKLVKLKHIELDSIQSVNIGEDFGKKSDSQCNPKNLPCDSTNPYRSYTGWCNNLETPSLANTFRELRRLLPPAYEDGIDLPRSKTITGSRLPSPRVISNMVHHAKKIEHVKYSHFVMEFGQFIDHDITHSPVDQNSDGTALNCSRCDSGRFVSPSCFPIPVPVNDVHFEPFSCLSFVRSLPAQKTLGYRNQMNQVSAYLDGSVMYGSTKCEGDRLRTFQDGKMKTTQTSRAPRHYGITLSQSDESEQDGCVSAPDAPCFIAGDDRNSQQTLLIAVHSVFHREHERITTTLKEINPNWDDEKIYQETRKLISAEFAHIVYNEYLPIIIGQKLIDDYDLRPRQDGYYDGYENCDASILQPFATAAFRFGHSTVTRFTPMQETVHDPATCVVDLASDFLNMSKIYDNEAVEQILGGMHGKHQMMTDRFVDDAIRNFLFSDRGRRGTGLDLISINIQRGRDHGIPPYNHYRSFCGLSRLTSFYSIFSDINQDGLTAIGKVYESPDDIDLFTGIVSEKTIPGGIVGPTAACIIAEQFRRLKKCDRFYYENGEDHSKFSASQLKEVRKTSMSALICANTKVPKISKDVFSVPDPFRYS,soluble
6,MTETRKKPDPIDVYVGTRIRLRRNILGLTQEKLGEKLGITFQQIQKYEKGTNRIGASRLQAIAEIMDVPVSYFFDKGVGTQQVEGFAESDNDFMDFCSSSEGIQLMRAFTNISDSKVRRKIIDLAKALSEEEDLTNKL,not soluble
7,MEAVLYVSHGSRIAAARHEAARFVEQCRRAIDIPIQELCFVELAEPDIVTGVDRCVAQGATRVIVVPLLLLSAGHAKHDIPAALDIARRRHPSVDILCGAPFGVHEAMIDIMIDRISEQSAPLDGESMILLVGRGSSDPDTKRDMSAIAALLKEKTNVPHVDVCFLAAIRPTLDEGLERAHASAYRRVFVVPYLLFTGVLMKTIERRLQGFSVSDKQWHLCSYLGDHPRLVLLIQQQVLSLSSVKKGA,soluble
8,MGSSHHHHHHSSGLVIRGSHMRIALMQHTARPLDPQHNLDLIDDAAARASEQGAQLLLTPELFGFGYVPSQICAQVSAEQVDAARSRLRGIARDRGIALVWSLPGPEGPEQRGITAELADEHGEVLASYQKVQLYGPEEKAAFVPGEQPPPVLSWGGRQLSLLVCYDVEFPEMVRAAAARGAQLVLVPTALAGDETSVPGILLPARAVENGITLAYANHCGPEGGLVFDGGSVVVGPAGQPLGELGVEPGLLVVDLPDQSQDAGSDSADYLQDRRAELHRNWL,soluble
9,MSKLGKQDVYYFEGLDDILIAMMTTKDAVGTEPAFGEVVRLPIATKLGIKGNGTALEKWASSKMFRRVSRETKHEIALDHVGIPIAVMDEIKGLIAQSGVTFGKNTAREFPYFAFGFIGNIENGGKKAVWYPKTQLSNVIDEEYTTAEDETKIDDVTANFVSTGLTYNNVMYSSFDSNRDSASIELFEKFIAQPVYDEEQWKKLAGPSRGGGSE,not soluble
10,MGSDKIHHHHHHMMWEQFKKEKLRGYLEAKNQRKVDFDIVELLDLINSFDDFVTLSSCSGRIAVVDLEKPGDKASSLFLGKWHEGVEVSEVAEAALRSRKVAWLIQYPPIIHVACRNIGAAKLLMNAANTAGFRRSGVISLSNYVVEIASLERIELPVAEKGLMLVDDAYLSYVVRWANEKLLKGKEKLGRLQEALESLQRENAYCSD,soluble
11,MIGGRDDYPESGFSLPFEPGPRRMQIKRGIRILGIDDSPFSRGDRESNLVGVLMRMDGYVEMMEKEKIQVDGDDVNRAIENLFLYTGRVARIIMMSGISFAGFNICDIDALYQRIRVPVISVFEQGGSVERMIAAIEKHLDDPEKVRILRSLKPVEIRNNGYIIMANLSGIDAQSAQEIITRNTIRGKFPEAIRLADLVGKILGR,not soluble
12,MVVVYVVKIGGSLTNNAVNLLENLKKLGEKVVIIPGGGNFANVVRNLHENEKINDISAHKLATMCTDITGTYFSEISGIKTADNLFDAKRILQNESIVIILPSNIILSTDELPCSWEVTSDSFAAYIAKLLNSKTLIIATDVDGIYDKYPEGKLLNTINTKTIKGFTSVDKHLPKLISEYGIKCFVVNGNHPERINNIFKGVVDTYTKITLKLEHHHHHH,not soluble
13,MADVLERVTKIIVDRLGVEETEVVPAASFKEDLGADSLDVVELVMQLEDEFEMEISDEDAEKIATVGDAVTYIESHL,not soluble
14,MRSRPTEGNLLVSIGIPFLNPGPYLDLAVRSVFAQTYLNWELILVDDGSTDGSYERAVAIQDPRVRVLRDGQNKGLPARLNEIVRLAKGELVARMDADDAMHPLRLEKQVGFLQANPELDGVTTGAYLIDAEDRPIALLPGRQPSAQEVLARGGFLHPSLLARKSWFEAHPYSLDYPRAEDRELFVRTFKTSRLHVLSEPLYFYRWFGVPRGKTLRIGYRSERKVMWKYGPNLVGWGPSLRLIALSFGKELLTWFLEWTHLEKGFQTRRAFQPLLEMDQREALRTLKVIRETCVPGWD,soluble
15,MQKLINSVQNYAWGSKTALTELYGIANPQQQPMAELWMGAHPKSSSRITTANGETVSLRDAIEKNKTAMLGEAVANRFGELPFLFKVLCAAQPLSIQVHPNKRNSEIGFAKENAAGIPMDAAERNYKDPNHKPELVFALTPFLAMNAFREFSDIVSLLQPVAGAHSAIAHFLQVPNAERLSQLFASLLNMQGEEKSRALAVLKAALNSQQGEPWQTIRVISEYYPDDSGLFSPLLLNVVKLNPGEAMFLFAETPHAYLQGVALEVMANSDNVLRAGLTPKYIDIPELVANVKFEPKPAGELLTAPVKSGAELDFPIPVDDFAFSLHDLALQETSIGQHSAAILFCVEGEAVLRKDEQRLVLKPGESAFIGADESPVNASGTGRLARVYNKL,not soluble
16,MSEVVTDRLRMALEAMAQKDDDAAWEVIDGDDEINQLYLDLEDDCIDLLALQQPVAGDLRLIASSFKIITDLERIGDLAANLAEYTLDADRDMFPEVDVQAIGDRTIEMVTDAMAAYASADVEACYAIAERDDDIDERCRSASQTVIRDLIETEIDAATDDAEIEALMQDVSRLLLTVRDLERVGDHAVNISARTVYMVDNDDELIY,soluble
17,GAMEATEIISTLSNGLIASHYGVSFFTIQSFVSSLSNTSTLKNMLYVLSTAVEFESVPLRKGDRALLVKLSKRLPLRFPEHTSSGSVSFKVFLLLQAYFSRLELPVDFQNDLKDILEKVVPLINVVVDILSANGYLNATTAMDLAQMLIQGVWDVDNPLRQIPHFNNKILEKCKEINVETVYDIMALEDEERDEILTLTDSQLAQVAAFVNNYPNVELTYSLNNSDSLISGVKQKITIQLTRDVEPENLQVTSEKYPFDKLESWWLVLGEVSKKELYAIKKVTLNKETQQYELEFDTPTSGKHNLTIWCVCDSYLDADKELSFEINVK,soluble
18,MEHLSQDEVIRLASTPCSAPALKRAFLFSCLTALRKSDIKKLTWEEIQPYGSDGVMYVTTRMQKTKDIVHNPISEEALELIGYSPDKRGKVFPDFKDSMTQAPLKNWLKDAGITKHISYHCSRHSFACLQLDAGTSIAVVQRYLGHKNVATTEVYAKISDAQKRASVGLEHHHHHH,not soluble
19,MKTGYVLKGRVIDGTLGPALEQGAVVTEGERIAWVGPQSGLPAQYAGDRHTVVDLPGRTIMPGLIDAHTHISFGESRSEEENALYTPVEFRTAKALWYARKVLQAGVTSAFDAATSYNIAQAVRDAIDTGMFEGPRFTVSGKQLTNHHGLEDSFPNEMAFPPGQSAVLVKTREDLVEAIHYQVKDEVDAIKVSGSNDNLITPDALGSSAFTYEEFKIIADETHRLGRLCSVHARSRDAALYAAQAGFDNLFHASYIDDEGIEACLKNGCVITPTLTLLVNLVEAKQSHAGASSAQAFRQEIEAASVNLRRAYDAGVPLLAGSESGWSPVPYGHWHAREMEIFVKLLGLTPLQAIHANTLACTRLLARHGHEVGKLEASRLADVLVLPGNPLEDITLLQRPSRFDYIFKGGTPVDRTAPAPRVRKWYERTKIFLAGVYEYDQENACGRLVQ,not soluble
